The test addresses Alcalase® (Bacillus) (UniProt P00780). As to the kind of experiment: titration of Alcalase with inhibitor, residual activity on synthetic peptide substrates, non-linear regression; 0.1M Tris-HCl pH 8.6, 25 C.

Regarding CI-2(M59P), the Kd stood at 5000 pM.
With CI-2(V57E) the figure was 100 pM; with “Wild-type barley subtilisin inhibitor CI-2”, 4 pM.

The record behind these values is US5674833.
